Data taken from patent publication US11912789 (INTERK PEPTIDE THERAPEUTICS, dated 2024).
Read-outs that look alike come from different tables or passages of the source. No end group written: not given here. 2Adod = 2-amino-dodecanoic acid; 2Adec = 2-amino-decanoic acid; 12Ado = NCCCCCCCCCCCC(=O)O

Tests used:
Experiment in all cases: cell-based or functional assay
[1] = molecular target: T1, Lymphocyte-specific protein tyrosine kinase (Lck), enzyme in cell-free kinase assay (human, UniProt P06239 1-509, limits assumed)
[2] = molecular target: T1, Lymphocyte-specific protein tyrosine …; remark: listed apart in the source
[3] = molecular target: Hck (UniProt P08631 251-518, limits assumed)
[4] = molecular target: Yes (UniProt P07947 1-543, limits assumed)
[5] = molecular target: T1, Lymphocyte-specific protein tyrosine …; remark: listed apart in the source
[6] = molecular target: Blk (UniProt P51451 1-505, limits assumed)
[7] = molecular target: Lyn (UniProt P07948 1-512, limits assumed)
[8] = molecular target: cSRC (UniProt P12931 1-536, limits assumed)
[9] = molecular target: Fyn (UniProt P06241 1-537, limits assumed)
[10] = molecular target: Fgr (UniProt P09769 1-529, limits assumed)
[11] = molecular target: T1, Lymphocyte-specific protein tyrosine …; remark: listed apart in the source

T1 sequence (P06239 whole entry): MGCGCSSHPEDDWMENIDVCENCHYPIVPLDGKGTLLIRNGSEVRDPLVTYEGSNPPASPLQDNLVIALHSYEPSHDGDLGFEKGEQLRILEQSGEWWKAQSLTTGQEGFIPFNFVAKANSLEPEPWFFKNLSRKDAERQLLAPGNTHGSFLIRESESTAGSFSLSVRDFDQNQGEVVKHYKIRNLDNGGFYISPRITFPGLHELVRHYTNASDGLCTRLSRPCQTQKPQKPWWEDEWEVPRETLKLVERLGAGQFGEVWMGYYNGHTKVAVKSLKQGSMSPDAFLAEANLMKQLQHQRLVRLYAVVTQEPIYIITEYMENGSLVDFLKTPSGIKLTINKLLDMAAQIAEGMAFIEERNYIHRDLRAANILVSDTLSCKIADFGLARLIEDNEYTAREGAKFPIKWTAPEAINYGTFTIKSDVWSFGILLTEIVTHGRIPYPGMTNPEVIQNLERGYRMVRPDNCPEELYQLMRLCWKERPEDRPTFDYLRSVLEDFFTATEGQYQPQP
Sequence of Lyn (P07948 whole entry): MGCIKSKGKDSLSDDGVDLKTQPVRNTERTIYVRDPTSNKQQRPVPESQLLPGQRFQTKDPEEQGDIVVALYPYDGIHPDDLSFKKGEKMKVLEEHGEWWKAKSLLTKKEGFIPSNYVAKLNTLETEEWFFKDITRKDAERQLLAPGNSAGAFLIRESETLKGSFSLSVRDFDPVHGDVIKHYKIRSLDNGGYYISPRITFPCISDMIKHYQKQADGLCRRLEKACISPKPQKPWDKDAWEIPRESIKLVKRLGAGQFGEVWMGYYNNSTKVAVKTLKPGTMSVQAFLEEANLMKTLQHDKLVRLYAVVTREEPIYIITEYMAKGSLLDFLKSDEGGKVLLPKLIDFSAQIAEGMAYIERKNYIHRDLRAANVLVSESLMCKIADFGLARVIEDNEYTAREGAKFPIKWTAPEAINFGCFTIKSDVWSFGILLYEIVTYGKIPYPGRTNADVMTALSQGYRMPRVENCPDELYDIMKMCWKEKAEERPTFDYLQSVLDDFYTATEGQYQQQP
Sequence of Fyn (P06241 whole entry): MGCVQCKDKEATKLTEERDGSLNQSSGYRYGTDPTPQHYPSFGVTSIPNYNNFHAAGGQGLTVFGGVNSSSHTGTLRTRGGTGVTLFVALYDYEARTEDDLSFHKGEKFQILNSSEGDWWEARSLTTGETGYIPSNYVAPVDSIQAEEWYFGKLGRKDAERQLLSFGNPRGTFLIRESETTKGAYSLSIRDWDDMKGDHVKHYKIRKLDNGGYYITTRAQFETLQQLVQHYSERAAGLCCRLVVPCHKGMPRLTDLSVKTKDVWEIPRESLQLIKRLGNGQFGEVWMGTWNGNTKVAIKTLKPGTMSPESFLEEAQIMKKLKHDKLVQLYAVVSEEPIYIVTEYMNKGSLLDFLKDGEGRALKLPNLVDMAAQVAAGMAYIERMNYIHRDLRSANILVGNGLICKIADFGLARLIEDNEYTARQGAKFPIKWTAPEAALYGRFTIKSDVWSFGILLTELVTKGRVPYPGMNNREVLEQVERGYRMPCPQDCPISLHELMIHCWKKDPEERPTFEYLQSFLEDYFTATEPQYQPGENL
Sequence of Hck (P08631 251-518 limits assumed): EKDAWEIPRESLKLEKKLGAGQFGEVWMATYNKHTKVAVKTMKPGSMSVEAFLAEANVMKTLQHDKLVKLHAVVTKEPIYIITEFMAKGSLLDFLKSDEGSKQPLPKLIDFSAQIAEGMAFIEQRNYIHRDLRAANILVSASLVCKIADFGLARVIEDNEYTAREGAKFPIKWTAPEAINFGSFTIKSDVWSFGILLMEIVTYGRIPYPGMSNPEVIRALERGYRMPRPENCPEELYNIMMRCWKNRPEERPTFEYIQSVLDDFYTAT
Sequence of Yes (P07947 whole entry): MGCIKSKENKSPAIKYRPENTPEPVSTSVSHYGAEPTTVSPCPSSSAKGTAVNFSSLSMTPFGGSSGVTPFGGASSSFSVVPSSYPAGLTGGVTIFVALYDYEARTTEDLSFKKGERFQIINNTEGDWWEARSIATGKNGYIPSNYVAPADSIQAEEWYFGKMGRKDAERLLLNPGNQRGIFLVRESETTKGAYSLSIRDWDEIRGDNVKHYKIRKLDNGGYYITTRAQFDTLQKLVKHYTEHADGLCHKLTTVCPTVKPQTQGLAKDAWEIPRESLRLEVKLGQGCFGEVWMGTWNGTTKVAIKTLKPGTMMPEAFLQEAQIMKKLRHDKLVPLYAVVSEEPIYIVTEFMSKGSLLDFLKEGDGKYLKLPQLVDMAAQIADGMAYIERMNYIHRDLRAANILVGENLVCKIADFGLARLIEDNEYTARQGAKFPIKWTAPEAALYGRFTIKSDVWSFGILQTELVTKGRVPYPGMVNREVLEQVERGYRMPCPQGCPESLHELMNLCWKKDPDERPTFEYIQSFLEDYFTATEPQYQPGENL
Sequence of Blk (P51451 whole entry): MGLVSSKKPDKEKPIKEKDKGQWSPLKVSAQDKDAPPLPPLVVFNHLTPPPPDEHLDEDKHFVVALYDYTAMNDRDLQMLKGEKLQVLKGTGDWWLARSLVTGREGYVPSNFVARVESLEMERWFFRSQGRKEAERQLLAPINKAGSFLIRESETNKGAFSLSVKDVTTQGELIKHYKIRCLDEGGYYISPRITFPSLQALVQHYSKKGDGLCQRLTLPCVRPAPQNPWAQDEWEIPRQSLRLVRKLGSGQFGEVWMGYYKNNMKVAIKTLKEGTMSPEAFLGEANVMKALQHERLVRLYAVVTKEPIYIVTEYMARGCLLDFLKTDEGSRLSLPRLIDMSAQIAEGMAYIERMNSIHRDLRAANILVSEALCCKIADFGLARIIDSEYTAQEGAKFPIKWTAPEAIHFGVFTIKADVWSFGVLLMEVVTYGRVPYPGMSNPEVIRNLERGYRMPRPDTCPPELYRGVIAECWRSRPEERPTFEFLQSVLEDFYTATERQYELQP

Binder | Lck Activation above control, 1 µM [1] [%] | Lck Activation above control, 10 µM [1] [%] | Lck Activation above control, 30 µM [1] [%] | further results
RSKAANPLY | 0 | 0 | 0 | 
RSKAKNPLYR-{2Adod-2Adod-2Adod-2Adod-OH} [RSKAKNPLYR-(2Adod)4-OH] |  |  |  | level of Lck activation relative to the amidated compound …-(2Adod)4-NH2 [2]: ~50%
RYLPNKAKS | 0 | 0 | 5 | 
RSRARNPLY | 0 | 0 | 0 | 
RSKAKNPLY | 0 | 186 | 407 | Hck activity relative to control, peptide at 10 µM [3]: 0%; Yes activity relative to control, peptide at 10 µM [4]: 0%; Lck activity relative to control, peptide at 10 µM [5]: 186%; Blk activity relative to control, peptide at 10 µM [6]: 0%; Lyn activity relative to control, peptide at 10 µM [7]: 0%; cSRC activity relative to control, peptide at 10 µM [8]: 0%; Fyn activity relative to control, peptide at 10 µM [9]: 0%; Fgr activity relative to control, peptide at 10 µM [10]: 0%
RSAAKNPLY | 0 | 0 | 0 | 
RSKAKNPLYR-{2Adec-2Adec-2Adec-2Adec-NH2} [RSKAKNPLYR-(2-Adec)4-NH2] |  |  |  | Lck Activation above control, 1 µM [11]: 127%
RSKAKNPLYR | 0 | 0 | 0 | Hck activity relative to control, peptide at 10 µM [3]: 0%; Yes activity relative to control, peptide at 10 µM [4]: 0%; Lck activity relative to control, peptide at 10 µM [5]: 0%; Blk activity relative to control, peptide at 10 µM [6]: 0%; Lyn activity relative to control, peptide at 10 µM [7]: 0%; cSRC activity relative to control, peptide at 10 µM [8]: 0%; Fyn activity relative to control, peptide at 10 µM [9]: 0%; Fgr activity relative to control, peptide at 10 µM [10]: 0%
DSEAENPLYD-{2Adod-2Adod-2Adod-2Adod-NH2} [DSEAENPLYD-(2Adod)4-NH2] |  |  |  | Lck Activation above control, 1 µM [11]: 0%
RVKVKVVVV | 518 | 501 | 363 | 
RVKVKVVVVR | 13 | 183 |  | 
KEKLKNPLF | 0 | 0 | 14 | 
RSKAKNPLYR-{12Ado-12Ado-12Ado-12Ado-NH2} [RSKAKNPLYR-(12-Adod)4-NH2] |  |  |  | Lck Activation above control, 1 µM [11]: 96%
ASKAKNPLY | 0 | 0 | 0 | 
RSKAKNPLYR-{2Adod-2Adod-2Adod-2Adod-NH2} [RSKAKNPLYR-(2Adod)4-NH2] |  |  |  | Lck Activation above control, 1 µM [11]: 499%
SKAKNPLYR | 0 | 0 | 0 | 
